According to US20260258115A1 (MAPP BIOPHARMACEUTICAL, published 2026):

What was measured:
[1] = target: RSV postfusion F (postF), F ΔFP trimer, subtype A (Respiratory Syncytial Virus, subtype A, UniProt P03420 26-513); assay: BLI, IgG (Table 9A)
[2] = target: RSV F on RSV subtype A virus (RSV-A2) (Respiratory Syncytial Virus, subtype A, …, UniProt P03420 26-574); assay: cell-based or functional assay
[3] = target: RSV prefusion F (preF), DS-Cav1 stabilized trimer, subtype A (Respiratory Syncytial Virus, subtype A, UniProt P03420 26-513); assay: BLI, apparent IgG KD (Table 9A)
RSV F on RSV-A2 virus = RSV F on RSV-A2 virus (Respiratory syncytial virus, RSV-A2, UniProt P03420 26-574); assay: cell-based or functional assay
[4] = target: RSV postfusion F (postF), F ΔFP (Respiratory syncytial virus, UniProt P03420 26-513); assay: BLI, IgG on anti-human IgG sensor
[5] = target: RSV prefusion F (preF), DS-Cav1 (Respiratory syncytial virus, UniProt P03420 26-513); assay: BLI, IgG on anti-human IgG sensor, 100 nM antigen

Row | Binder | binding result [1] | Neutralization - RSV A2 IC50 (pM) [2] [pM] | neut IC50 (ug/ml) subtype A (wright) [2] [µg/mL] | Kd [3] [nM] | Neutralization IC50 (RSV subtype A) (RSV F on RSV-A2 virus) [µg/mL] | binding result [4] | Kd [5] [nM]
1 | ADI-36669 (antibody, V domains shown) VH: EVQLVQSGAEVKKPGASVRVYCKASGYTFTTYYIHWVRQAPGQGLEWMGMINPSGGTTSYAQKFQGRLTMTGDTSTSTVYMELNYLRSEDTAVYYCTRDFIYFYGSGDGFDYWGQGTLVTVSS VL: EIVMTQSPSAMSASVGDRVTITCRASQGISNYLAWFQQKPGKVPKRLIYAASSLQSGVPSRFSGSGSGTEFTLTITSLQPEDFATYYCLQHNSYPFTFGPGTKVEIK | no binding | 111 | 0.025 | 1.1 |  |  | 
2 | ADI-36672 (antibody, V domains shown) VH: EVQLVESGGGLVKPGGSLRLSCAASGFAFNNYYMNWVRQAPGKGLEWVSSISSASTYTDYADSVKGRFTISRDNAKNSLYLHLNSLRAEDTAVYYCARDYYGSGNYYNPKPLDVWGQGTTVTVSS VL: QPVLTQPPSVSGAPGQRVTISCTGSSSNIGAGYDVHWYRQFPGTAPELLIYGNTNRPSGVPDRFSGSKSGTSASLAITGLQAEDEADYYCQSYDSSLKGVFGGGTKLTVL | no binding | 207 | 0.018 | 0.7 |  |  | 
3 | ADI-36676 (antibody, V domains shown, also called Ab 832; Antibody Number 832) VH: EVQLLESGGGVVQPGRSLRLSCAASGFSFRNYDMHWVRQAPGKGLEWVAIISYDGSNKYADSVKGRFTISRDTSKNTLYLQMNSLRVEDTAVYYCARADSSGYYKGSEYFQHWGQGTLVTVSS VL: SYELTQLPSVSVAPGQTARITCGGNNIGTKSVQWYQHKPGQAPVLVVYDDSDRPSDIPERFSGSNSGNTATLTISRVEAGDEADYYCQVWDSSSDHYVFGTGTKLTVL | no binding | 130 | 0.006 | 0.28 |  |  | 
4 | ADI-36677 (antibody, V domains shown) VH: QVQLVQSGGGLVQPGGSLRLSCAASGFTFSSYEMNWVRQAPGKGLEWISYISSSGDTKYYADSVKGRFTVSRDNAKYSLYLQMDSLRAEDTAVYYCASLYDSRGYYWVFDYWGQGTLVTVSS VL: DIVMTQSPSSLSASVGDRVTITCQASQDISTYLNWYQHKPGKAPNLLIYDASNLEPGVPSRFSGSGSGTDFTFTISSLQPEDIATYYCLQHDNLPPTFGQGTKVDIK | no binding | 144 | 0.019 | 0.54 |  |  | 
5 | ADI-41191 (antibody, V domains shown) VH: QVQLVQSGAEVKRPGASVKVSCKASGYIFSHYGISWVRQAPGQGLEWMAWISAYNGNTNYAQKLQGRVTVTTDTSTSTAYMELRSLRSDDTAVYYCAREPPSLSAAATLDYWGQGTLVTVSS VL: EIVMTQSPLSLPVTLGQPASISCRSNQSLVYSDGNIYLSWFQQRPGQSPRRLIYKVSNRDSGVPDRFSGSGSGTDFTLKISRVEAEDVAVYYCMQVTHWPHEFGQGTKLEIK | no binding | 154 | 0.071 | 0.5 |  |  | 
6 | ADI-41203 (antibody, V domains shown) VH: QVQLVQSGAEVRKPGESLKISCKASGYRFTNYWIGWVRQMPGKGLEWMGVIYPGDSDTRYSPSFQGQVTMSADKSTNTAYLQWSSLKASDTAIYYCVSLYSDYDYGALDYWGQGTLVTVSS VL: EIVMTQSPATLSVSPGERATLSCRASENVGRNLAWYQQKPGQAPRLLIYGASIRATGILARFSGSGSGTEYTLTISSLQSEDFAVYYCQQYHDWPSFTFGPGTKVDIK | no binding | 23.9 | 0.006 | 0.4 |  |  | 
7 | ADI-41609 (antibody, V domains shown) VH: QVQLVESGAEVKKPGASVKVSCKASGYSFTSYYMHWVRQAPGQGLEWMGVISTNGGTASYSQNFRGRVTLTRDTSTSTAYMELSSLTSEDTAVYYCVREGYCNGGSCSYFDSWGQGTLVTVSS VL: QSVLTQPPSVSGAPGQRVSISCTGSSSNIGAGYDVHWYQQLPGTAPKVLIYGNNYRPSGVPDRFSGSKSGTSASLAITGLQTEDEADYYCQSYDSRLSVVFGGGTKLTVL |  |  |  |  | > 25 | no binding (tested: 100 nM antigen) | 29.1
